Measurements: US20060177448

Molecular target: gDHER2(DIV)-IgG, P04626

B1: purified catalytic domain of MT5-MMP (MMP-25) (protein)
chain: YALSGSVWKKRTLTWRVRSFPQSSQLSQETVRVLMSYALMAWGMESGLTFHEVDSPQGQEPDILIDFARAFHQDSYPFDGLGGTLAHAFFPGEHPISGDTHFDDEETWTFGSKDGEGTDLFAVAVHEFGHALGLGHSSAPNSIMRPFYQGPVGDPDKYRLSQDDRDGLQQLYG
- in vitro HER2 cleavage (sheddase) assay, stained gel: All MT-MMPs except MMP-14 efficiently cleave gDHER2(DIV)-IgG substrate
